This assay addresses CdiA-CT_(PA0041), C-terminal (CT) toxin domain of CdiA_(PA0041) of P. aeruginosa PAO1 (P. aeruginosa PAO1).

In turn, “CdiI_(PA2462)-His6, immunity protein of the cdi_(PA2462) locus of P. aeruginosa PAO1 (natural protein)” had a decrease of CFU/ml of E. coli co-producing CdiA-CT (PA0041) (1% arabinose) with the non-cognate CdiI (PA2462)-His6 (1 mM IPTG), after 6 h of culture: no protection of 6 logs.

The values above are taken from PMC4725963.
